# Experimental data from paper PMC2843741.
# Target: GST-CypA (UniProt P62937)
# Test: pull-down; 35S-labelled in vitro translated proteins incubated overnight in binding buffer with about 2.0 µg purified GST fusion or GST alone; glutathione Sepharose beads; 5 washes with PBS, 0.25% NP-40; SDS-10% PAGE, fluorography
# Sequence of UniProt P62937 (P62937 whole entry, the tested form may be a part): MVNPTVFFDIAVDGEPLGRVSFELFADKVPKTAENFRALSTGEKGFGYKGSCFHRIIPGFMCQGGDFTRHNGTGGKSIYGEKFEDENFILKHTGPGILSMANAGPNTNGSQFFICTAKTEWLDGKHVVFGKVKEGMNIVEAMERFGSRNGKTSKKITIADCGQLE
substance,measurement,value
HA-wt NS5A with in-frame deletion of amino acids 271-360 (domain or fragment),percent of input pulled down,8 to 9 % of input
HA-wt NS5A with in-frame deletion of amino acids 361-451 (domain or fragment),percent of input pulled down,5 % of input
